Measurements reported in paper PMC10723421.

Biological target: T1, CLAMP (recombinant full-length) (UniProt Q9V9N4 1-561)
T1 sequence: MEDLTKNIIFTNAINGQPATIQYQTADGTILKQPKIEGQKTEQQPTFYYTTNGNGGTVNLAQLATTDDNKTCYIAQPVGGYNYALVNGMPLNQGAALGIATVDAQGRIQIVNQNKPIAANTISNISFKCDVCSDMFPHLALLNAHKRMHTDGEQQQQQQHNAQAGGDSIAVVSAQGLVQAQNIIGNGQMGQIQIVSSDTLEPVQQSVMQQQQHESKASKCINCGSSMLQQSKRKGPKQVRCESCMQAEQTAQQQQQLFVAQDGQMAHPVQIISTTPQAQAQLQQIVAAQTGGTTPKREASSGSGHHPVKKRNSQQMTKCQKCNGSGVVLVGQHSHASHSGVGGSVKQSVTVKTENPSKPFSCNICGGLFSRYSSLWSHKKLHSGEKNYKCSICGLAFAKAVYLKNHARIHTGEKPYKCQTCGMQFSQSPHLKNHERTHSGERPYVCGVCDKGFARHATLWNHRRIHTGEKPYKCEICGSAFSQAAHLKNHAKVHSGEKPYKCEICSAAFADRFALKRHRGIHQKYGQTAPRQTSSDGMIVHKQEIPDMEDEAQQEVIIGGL
Assay: EMSA

B1: GA del H3/H4p probe, biotin (198 bp) (dsDNA)
DNA 1: CACAGCACGAAAGTCACTAAAGAACTAATTTCAACGTTTCTGTGTGCCCCTATTTATAGGTAAAACGACAAAAACCCTACGAACGATATGTTCGTTCGCTTTTCGCTCGTCAAATGAAATGGCCTCTGTTTTTTCACCGTCCACGATTGCTATATAAGTAGGTAGCAAATGCTCTGATCGTTTATTGTGTTTTCAAAC
DNA 2: GTTTGAAAACACAATAAACGATCAGAGCATTTGCTACCTACTTATATAGCAATCGTGGACGGTGAAAAAACAGAGGCCATTTCATTTGACGAGCGAAAAGCGAACGAACATATCGTTCGTAGGGTTTTTGTCGTTTTACCTATAAATAGGGGCACACAGAAACGTTGAAATTAGTTCTTTAGTGACTTTCGTGCTGTG
  binding result: no binding
